In assay [1] the target is human Ska1 complex containing GFP-Ska1 (human) (UniProt Q96BD8). As to the kind of experiment: single-molecule TIRF microscopy, intensity distribution and photobleaching steps.
Assay [2] addresses taxol stabilized microtubules (UniProt Q6B856). Kind of assay: co-sedimentation.

human Ska1 complex, sequence (Q96BD8 whole entry): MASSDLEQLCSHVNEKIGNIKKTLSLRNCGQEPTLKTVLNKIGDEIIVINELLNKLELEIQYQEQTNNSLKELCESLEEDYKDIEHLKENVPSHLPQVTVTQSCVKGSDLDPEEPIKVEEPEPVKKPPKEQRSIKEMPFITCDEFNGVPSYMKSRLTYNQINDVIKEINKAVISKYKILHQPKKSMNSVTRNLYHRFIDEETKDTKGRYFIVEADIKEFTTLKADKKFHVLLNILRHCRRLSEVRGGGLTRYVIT
human Ska1 complex, sequence (Q8WVK7 whole entry): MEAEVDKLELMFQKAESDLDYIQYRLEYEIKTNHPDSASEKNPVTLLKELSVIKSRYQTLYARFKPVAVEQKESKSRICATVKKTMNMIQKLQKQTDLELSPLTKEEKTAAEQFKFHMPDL
human Ska1 complex, sequence (Q8IX90 whole entry): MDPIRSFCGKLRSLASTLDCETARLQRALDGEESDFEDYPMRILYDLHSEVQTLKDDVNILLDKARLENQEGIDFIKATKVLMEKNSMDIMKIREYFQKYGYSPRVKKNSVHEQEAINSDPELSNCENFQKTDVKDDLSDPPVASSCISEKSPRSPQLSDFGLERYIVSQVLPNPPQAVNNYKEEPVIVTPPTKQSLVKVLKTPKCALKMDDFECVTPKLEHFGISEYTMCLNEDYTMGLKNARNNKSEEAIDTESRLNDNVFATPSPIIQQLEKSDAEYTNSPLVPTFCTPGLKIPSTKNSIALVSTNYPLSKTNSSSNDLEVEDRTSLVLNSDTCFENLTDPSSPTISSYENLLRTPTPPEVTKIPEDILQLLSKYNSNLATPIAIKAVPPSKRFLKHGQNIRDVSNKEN
human Ska1 complex containing GFP-Ska1, sequence (Q96BD8 whole entry): as the sequence (Q96BD8 whole entry) above
human Ska1 complex containing GFP-Ska1, sequence (Q8WVK7 whole entry): as the sequence (Q8WVK7 whole entry) above
human Ska1 complex containing GFP-Ska1, sequence (Q8IX90 whole entry): as the sequence (Q8IX90 whole entry) above

The term stoichiometry N denotes the number of molecules, sites or subunits per partner or assembly. Substance “human Ska1 complex containing GFP-Ska1 (from UniProt Q96BD8 1-255; Q8WVK7 1-121; Q8IX90 1-412)” came in with a stoichiometry N in assay [1] of 2. The term Kd denotes the free concentration of one partner at which half of the binding sites on the other are occupied at equilibrium, for simple one-to-one binding. “C. elegans Ska1 complex (from UniProt Q9XWS0 1-243)” registered a Kd in assay [2] of 11.3 µM. The same measure, in the same setting: with “human Ska1 complex (from UniProt Q96BD8 1-255; Q8WVK7 1-121; Q8IX90 1-412)” the figure was 2.4 µM.
